Data: patent US20100015155A1 (Eli Lilly, published 2010)

Tests used:
[1] = molecular target: T1, human soluble Abeta (1-40) (human, UniProt P05067 672-711); assay: KinExA equilibrium, antigen on sepharose beads, soluble Abeta (1-40) titrated, 37 C; 1A1 Fab, not PEGylated
T1 construct: domain: Abeta (1-40); The numbers 1-40 count on the Aβ peptide, not on the APP precursor entry; also called Human Abeta (1-40); human abeta
Procedure: (§1) KinExA analysis is used as an orthogonal approach to measure binding affinity through equilibrium binding analysis due to the slow off-rate of the antigen Fab complex. A KinExA 3000 instrument (Sapidyne Inst. Inc.) is used to measure binding kinetics. Briefly, the antigen is covalently coupled to sepharose beads and the binding of free Fab/Fab-PEG to the beads is detected on the instrument. […] After the incubation, free Fab/Fab-PEG in each equilibrated sample is determined on the KinExA 3000 according to the manufacturer's instructions. Kd values are determined by n-Curve Analysis using KinExA 3000 software.

[2] = molecular target: T1, human soluble Abeta (1-40); assay: KinExA equilibrium, ratio of KD values
Procedure: as §1

T1 sequence (P05067 672-711 limits assumed): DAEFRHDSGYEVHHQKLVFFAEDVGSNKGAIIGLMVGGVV

B1: 1A1-Fab (humanized antibody Fab fragment, LCVR of SEQ ID NO: 1 and HCVR of SEQ ID NO: 2) (Fab, V domains shown)
VH: EVQLVESGGGLVKPGGSLRLSCAASGYTFSRYSMSWVRQAPGKGLEWVGQINIRGCNTYYPDTVKGRFTISRDDSKNTLYLQMNSLKTEDTAVYYCTTGDFWGQGTLVTVSS
VL: DIVMTQTPLSLSVTPGQPASISCSSSQSLIYSDGNAYLHWYLQKPGQSPQLLIYKVSNRFSGVPDRFSGSGSGTDFTLKISRVEAEDVGVYYCTQSTHSPWTFGGGTKVEIK
notes: Fab without PEG; CH1 and CL are not; The light chain is human kappa, since it is captured or detected with anti-human kappa; also called humanized 1A1-Fab; 1A1 N56C Fab
- Kd [1]: 0.019 nM
- fold affinity against murine 266 Fab [2]: ~10 fold
